The values that follow come from article PMC9959367, “Identification and Characterization of p300-Mediated Lysine Residues in Cardiac SERCA2a” (International Journal of Molecular Sciences, 2023).

This assay addresses T1, phospholamban (PLN) (UniProt P26678 1-52).
T1 construct: phospholamban, overexpressed
T1 sequence (looked up): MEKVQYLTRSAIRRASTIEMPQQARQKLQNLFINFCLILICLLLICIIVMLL
The assay can be described thus: co-IP; IP experiments in overexpression systems, told in the discussion only, data not shown; which partner was precipitated is not told. The settings on record: partners not purified.

B1: acetylation-mimic mutant of K328 SERCA2a (K328Q) (natural protein, UniProt P16615-2 1-997, looked up)
chain: MENAHTKTVEEVLGHFGVNESTGLSLEQVKKLKERWGSNELPAEEGKTLLELVIEQFEDLLVRILLLAACISFVLAWFEEGEETITAFVEPFVILLILVANAIVGVWQERNAENAIEALKEYEPEMGKVYRQDRKSVQRIKAKDIVPGDIVEIAVGDKVPADIRLTSIKSTTLRVDQSILTGESVSVIKHTDPVPDPRAVNQDKKNMLFSGTNIAAGKAMGVVVATGVNTEIGKIRDEMVATEQERTPLQQKLDEFGEQLSKVISLICIAVWIINIGHFNDPVHGGSWIRGAIYYFKIAVALAVAAIPEGLPAVITTCLALGTRRMAQKNAIVRSLPSVETLGCTSVICSDKTGTLTTNQMSVCRMFILDRVEGDTCSLNEFTITGSTYAPIGEVHKDDKPVNCHQYDGLVELATICALCNDSALDYNEAKGVYEKVGEATETALTCLVEKMNVFDTELKGLSKIERANACNSVIKQLMKKEFTLEFSRDRKSMSVYCTPNKPSRTSMSKMFVKGAPEGVIDRCTHIRVGSTKVPMTSGVKQKIMSVIREWGSGSDTLRCLALATHDNPLRREEMHLEDSANFIKYETNLTFVGCVGMLDPPRIEVASSVKLCRQAGIRVIMITGDNKGTAVAICRRIGIFGQDEDVTSKAFTGREFDELNPSAQRDACLNARCFARVEPSHKSKIVEFLQSFDEITAMTGDGVNDAPALKKAEIGIAMGSGTAVAKTASEMVLADDNFSTIVAAVEEGRAIYNNMKQFIRYLISSNVGEVVCIFLTAALGFPEALIPVQLLWVNLVTDGLPATALGFNPPDLDIMNKPPRNPKEPLISGWLFFRYLAIGCYVGAATVGAAAWWFIAADGGPRVSFYQLSHFLQCKEDNPDFEGVDCAIFESPYPMTMALSVLVTIEMCNALNSLSENQSLLRMPPWENIWLVGSICLSMSLHFLILYVEPLPLIFQITPLNVTQWLMVLKISLPVILMDETLKFVARNYLEPAILE
notes: SERCA2a with lysine 328 exchanged for glutamine to mimic acetylation; The mutants were expressed from plasmids in HEK293 cells for the ATPase assays; also called K328Q SERCA2a
As to B1, the “fold change of affinity against wild-type SERCA2a” value is roughly 2.5 fold.
